The supplement of paper PMC11908140

B1: library; numbered along this chain (parent)
chain: MRKPRAAVGSGHRKQAASQEGRQKHAKNNSQAKPSACDGLARQPEEVVLQASVSSYHLFRDVAEVTAFRGSLLSWYDQEKRDLPWRRRAEDEMDLDRRAYAVWVSEVMLQQTQVATVINYYTGWMQKWPTLQDLASASLEEVNQLWAGLGYYSRGRRLQEGARKVVEELGGHMPRTAETLQQLLPGVGRYTAGAIASIAFGQATGVVDGNVARVLCRVRAIGADPSSTLVSQQLWGLAQQLVDPARPGDFNQAAMELGATVCTPQRPLCSQCPVESLCRARQRVEQEQLLASGSLSGSPDVEECAPNTGQCHLCLPPSEPWDQTLGVVNFPRKASRKPPREESSATCVLEQPGALGAQILLVQRPNSGLLAGLWEFPSVTWEPSEQLQRKALLQELQRWAGPLPATHLRHLGEVVHTFSHIKLTYQVYGLALEGQTPVTTVPPGARWLTQEEFHTAAVSTAMKKVFRVYQGQQPGTCMGSKRSQVSSPCSRKKPRMGQQVLDNFFRSHISTDAHSLNSAAQ

Variants of: B1
Assay: 8OG:A repair function score (normalized; synonymous = 0, nonsense = -1) (normalized log-likelihood score); higher = more repair activity (WT-like)
Conditions: with 8OG:A DNA repair reporter (GFP) in HEK-293 MUTYH KO cells
Protocol: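 Saturation mutagenesis (NNN codon scan) of the MUTYH cDNA (521-aa nuclear isoform NM_001048174.1 / NP_001041639), stably expressed under doxycycline induction in HEK-293 MUTYH knockout cells. Cells were co-transfected with an 8OG:A-bearing GFP repair reporter plus mCherry and sorted 72 h later into GFP+ and GFP− bins, three replicates per tile. The Rosace log2 enrichment (GFP+ vs GFP−) was converted per tile to a normalized function score with synonymous variants centered at 0 and nonsense variants (codons 1-471) at -1; low-abundance variants were removed.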
With R213G the “8OG:A repair function score” value was -1.01.
L158A was tested, and the “8OG:A repair function score” value was -0.675.
With R175I the “8OG:A repair function score” value was -0.189.
For Q132S, the “8OG:A repair function score” value was -0.109.
A196Y was tested, and the “8OG:A repair function score” value was -0.723.
Q498L was tested, and the “8OG:A repair function score” value was -0.00389.
With S344D the “8OG:A repair function score” value was -0.196.
In the case of L432M, the “8OG:A repair function score” value is reported as -0.284.
With F376K the “8OG:A repair function score” value was -0.92.
For F376A, the “8OG:A repair function score” value was -0.775.
For G248Q, the “8OG:A repair function score” value was -0.882.
R87N was tested, and the “8OG:A repair function score” value was -0.000681.
For L215F, the “8OG:A repair function score” value was -0.325.
W235C was tested, and the “8OG:A repair function score” value was -0.509.
In the case of H508K, the “8OG:A repair function score” value is reported as -0.0603.
V165C was tested, and the “8OG:A repair function score” value was -0.0561.
A192R was tested, and the “8OG:A repair function score” value was -0.901.
In the case of A192N, the “8OG:A repair function score” value is reported as -0.876.
In the case of A192E, the “8OG:A repair function score” value is reported as -0.908.
P443Q was tested, and the “8OG:A repair function score” value was 0.0864.
P317D was tested, and the “8OG:A repair function score” value was -0.029.
With A223M the “8OG:A repair function score” value was -0.321.
For G297M, the “8OG:A repair function score” value was -0.00568.
With G297I the “8OG:A repair function score” value was -0.0605.
A305Y was tested, and the “8OG:A repair function score” value was 0.000265.
For S294L, the “8OG:A repair function score” value was -0.0244.
For Y425C, the “8OG:A repair function score” value was -0.509.
For Y425H, the “8OG:A repair function score” value was -0.0609.
For T66D, the “8OG:A repair function score” value was 0.00573.
In the case of W381P, the “8OG:A repair function score” value is reported as -0.215.
T228H was tested, and the “8OG:A repair function score” value was 0.457.
For K390R, the “8OG:A repair function score” value was -0.126.
R336F was tested, and the “8OG:A repair function score” value was -0.164.
For R336Q, the “8OG:A repair function score” value was -0.218.
With V211E the “8OG:A repair function score” value was -0.951.
For Q233D, the “8OG:A repair function score” value was -0.318.
Q233Y was tested, and the “8OG:A repair function score” value was 0.0243.
In the case of Q113L, the “8OG:A repair function score” value is reported as -0.239.
With Q113F the “8OG:A repair function score” value was -0.237.
With Q113E the “8OG:A repair function score” value was -0.529.
W399S was tested, and the “8OG:A repair function score” value was -0.232.
In the case of W399E, the “8OG:A repair function score” value is reported as -0.679.
With W399Q the “8OG:A repair function score” value was -0.108.
W399I was tested, and the “8OG:A repair function score” value was -0.15.
W399L was tested, and the “8OG:A repair function score” value was 0.1.
In the case of P267S, the “8OG:A repair function score” value is reported as -0.361.
In the case of Q286A, the “8OG:A repair function score” value is reported as -0.00891.
For Q286C, the “8OG:A repair function score” value was -0.00905.
With D94G the “8OG:A repair function score” value was -0.231.
With R467W the “8OG:A repair function score” value was -0.034.
C278K was tested, and the “8OG:A repair function score” value was -1.26.
P225G was tested, and the “8OG:A repair function score” value was -0.342.
With A253K the “8OG:A repair function score” value was -1.02.
For S296V, the “8OG:A repair function score” value was 0.0116.
With L361A the “8OG:A repair function score” value was -0.284.
With S510M the “8OG:A repair function score” value was -0.0272.
For S510A, the “8OG:A repair function score” value was -0.00841.
With T476W the “8OG:A repair function score” value was -0.159.
In the case of A431F, the “8OG:A repair function score” value is reported as -0.237.
In the case of A431K, the “8OG:A repair function score” value is reported as 0.126.
For G201F, the “8OG:A repair function score” value was -0.266.
In the case of G70L, the “8OG:A repair function score” value is reported as -0.0189.
In the case of E140D, the “8OG:A repair function score” value is reported as 0.0449.
For E140Q, the “8OG:A repair function score” value was -0.159.
S419T was tested, and the “8OG:A repair function score” value was -0.177.
For L58V, the “8OG:A repair function score” value was -0.00997.
For V242F, the “8OG:A repair function score” value was -0.874.
For Q351C, the “8OG:A repair function score” value was -0.0209.
For Q351M, the “8OG:A repair function score” value was 0.0542.
In the case of Q351L, the “8OG:A repair function score” value is reported as -0.0629.
In the case of P383W, the “8OG:A repair function score” value is reported as -0.185.
With V114F the “8OG:A repair function score” value was -0.42.
For V114K, the “8OG:A repair function score” value was -0.435.
With V114A the “8OG:A repair function score” value was 0.0344.
G353T was tested, and the “8OG:A repair function score” value was 0.0569.
G353W was tested, and the “8OG:A repair function score” value was -0.099.
With A99G the “8OG:A repair function score” value was -0.0185.
In the case of T179R, the “8OG:A repair function score” value is reported as 0.0462.
A345T was tested, and the “8OG:A repair function score” value was -0.111.
For R42P, the “8OG:A repair function score” value was -0.176.
With L408P the “8OG:A repair function score” value was -0.461.
In the case of L408H, the “8OG:A repair function score” value is reported as -1.11.
R69S was tested, and the “8OG:A repair function score” value was -0.0909.
W124I was tested, and the “8OG:A repair function score” value was -0.714.
For W124F, the “8OG:A repair function score” value was 0.00143.
With W124T the “8OG:A repair function score” value was -0.869.
In the case of A371P, the “8OG:A repair function score” value is reported as -0.216.
Q126H was tested, and the “8OG:A repair function score” value was -0.0777.
In the case of T263I, the “8OG:A repair function score” value is reported as -0.0749.
In the case of P185K, the “8OG:A repair function score” value is reported as -0.102.
With L109Y the “8OG:A repair function score” value was -1.24.
For H420S, the “8OG:A repair function score” value was -0.494.
For H420A, the “8OG:A repair function score” value was -0.146.
L257I was tested, and the “8OG:A repair function score” value was -0.176.
Y121R was tested, and the “8OG:A repair function score” value was -0.993.
With Q182M the “8OG:A repair function score” value was -0.0488.
Q182L was tested, and the “8OG:A repair function score” value was -0.0117.
E385F was tested, and the “8OG:A repair function score” value was -0.34.
For E385I, the “8OG:A repair function score” value was 0.197.
For Q397S, the “8OG:A repair function score” value was -0.159.
In the case of D133A, the “8OG:A repair function score” value is reported as -0.000201.
With D133Q the “8OG:A repair function score” value was -0.164.
D133E was tested, and the “8OG:A repair function score” value was -0.0313.
For E92S, the “8OG:A repair function score” value was -0.0176.
In the case of L268V, the “8OG:A repair function score” value is reported as -0.0404.
With L268A the “8OG:A repair function score” value was -0.000124.
In the case of T112Y, the “8OG:A repair function score” value is reported as -1.19.
In the case of D300A, the “8OG:A repair function score” value is reported as -0.149.
For D300F, the “8OG:A repair function score” value was -0.255.
In the case of R279L, the “8OG:A repair function score” value is reported as -0.146.
With W447T the “8OG:A repair function score” value was -1.01.
For E382L, the “8OG:A repair function score” value was 0.0169.
W128N was tested, and the “8OG:A repair function score” value was -0.681.
M462S was tested, and the “8OG:A repair function score” value was -0.0759.
For T130Q, the “8OG:A repair function score” value was -0.123.
T130F was tested, and the “8OG:A repair function score” value was -0.197.
With Y428T the “8OG:A repair function score” value was -1.1.
In the case of E45S, the “8OG:A repair function score” value is reported as -0.0822.
With L516P the “8OG:A repair function score” value was 0.00373.
With L516V the “8OG:A repair function score” value was 0.0206.
S197F was tested, and the “8OG:A repair function score” value was -0.956.
For S105G, the “8OG:A repair function score” value was -0.13.
For V47N, the “8OG:A repair function score” value was 0.0108.
With W321G the “8OG:A repair function score” value was -0.258.
In the case of L387I, the “8OG:A repair function score” value is reported as 0.125.
With L387P the “8OG:A repair function score” value was -0.26.
With E160T the “8OG:A repair function score” value was -0.0143.
With E160Y the “8OG:A repair function score” value was -0.063.
With L234D the “8OG:A repair function score” value was -1.03.
With A135G the “8OG:A repair function score” value was -0.074.
W85A was tested, and the “8OG:A repair function score” value was -1.08.
In the case of W85N, the “8OG:A repair function score” value is reported as -1.55.
L313K was tested, and the “8OG:A repair function score” value was -0.581.
With S270K the “8OG:A repair function score” value was -0.0187.
K333M was tested, and the “8OG:A repair function score” value was -0.0664.
M125S was tested, and the “8OG:A repair function score” value was -0.734.
With A6Q the “8OG:A repair function score” value was 0.0112.
With A212L the “8OG:A repair function score” value was -0.264.
With R266Q the “8OG:A repair function score” value was -0.165.
With R266T the “8OG:A repair function score” value was -0.142.
For R266N, the “8OG:A repair function score” value was -0.0656.
K492A was tested, and the “8OG:A repair function score” value was 0.0165.
For V48H, the “8OG:A repair function score” value was 0.0666.
With V48I the “8OG:A repair function score” value was 0.0882.
With R60Y the “8OG:A repair function score” value was -0.014.
For L501A, the “8OG:A repair function score” value was 0.00122.
With I195P the “8OG:A repair function score” value was -1.04.
In the case of G222P, the “8OG:A repair function score” value is reported as -0.731.
In the case of G401Y, the “8OG:A repair function score” value is reported as -0.393.
In the case of G401V, the “8OG:A repair function score” value is reported as -0.142.
For D208H, the “8OG:A repair function score” value was -1.01.
In the case of F200Y, the “8OG:A repair function score” value is reported as 0.0681.
In the case of F200S, the “8OG:A repair function score” value is reported as -0.54.
In the case of F200M, the “8OG:A repair function score” value is reported as 0.0616.
For T439H, the “8OG:A repair function score” value was 0.301.
For S518C, the “8OG:A repair function score” value was -0.0625.
In the case of R86V, the “8OG:A repair function score” value is reported as -1.33.
A203L was tested, and the “8OG:A repair function score” value was -0.0917.
In the case of F466M, the “8OG:A repair function score” value is reported as -0.0599.
In the case of Y56I, the “8OG:A repair function score” value is reported as -0.000994.
With Y56Q the “8OG:A repair function score” value was -0.0234.
N517T was tested, and the “8OG:A repair function score” value was -0.0674.
In the case of A391I, the “8OG:A repair function score” value is reported as 0.114.
With V274Y the “8OG:A repair function score” value was -0.549.
With V274T the “8OG:A repair function score” value was -0.241.
For Q111V, the “8OG:A repair function score” value was -0.38.
With Q111D the “8OG:A repair function score” value was -0.941.
